Columns and labels:
SAMHD1 HD domain WT [1] = biological target: T1, SAMHD1 HD domain WT (UniProt Q9Y3Z3 114-626); assay: fluorescence anisotropy; FA: 50 mM Tris pH 8, 100 mM NaCl, 5 mM MgCl2, 1 mM TCEP, 50 nM 6FAM-oligo (salt series with KCl 50-150 mM); SEC same buffer; NMR: 50 mM Tris pH 7.5, 150 mM NaCl, 5 mM MgCl2, 10% D2O; temperature not stated; settings: protein: recombinant; chain copies: 2; label: 5'-6FAM; single strand
SAMHD1 HD domain WT [2] = biological target: T1, SAMHD1 HD domain WT; assay: fluorescence anisotropy; tolerant to increasing salt (from 50 mM KCl); FA: 50 mM Tris pH 8, 100 mM NaCl, 5 mM MgCl2, 1 mM TCEP, 50 nM 6FAM-oligo (salt series with KCl 50-150 mM); SEC same buffer; NMR: 50 mM Tris pH 7.5, 150 mM NaCl, 5 mM MgCl2, 10% D2O; temperature not stated; settings: protein: recombinant; chain copies: 2; label: 5'-6FAM; single strand
SAMHD1 HD domain WT [3] = biological target: T1, SAMHD1 HD domain WT; assay: X-ray crystallography; FA: 50 mM Tris pH 8, 100 mM NaCl, 5 mM MgCl2, 1 mM TCEP, 50 nM 6FAM-oligo (salt series with KCl 50-150 mM); SEC same buffer; NMR: 50 mM Tris pH 7.5, 150 mM NaCl, 5 mM MgCl2, 10% D2O; temperature not stated; settings: protein: recombinant; chain copies: 2; single strand
SAMHD1 D311A = SAMHD1 D311A (UniProt Q9Y3Z3 114-626, D311A); assay: analytical ultracentrifugation; no nucleotides; dimer, S ~6; FA: 50 mM Tris pH 8, 100 mM NaCl, 5 mM MgCl2, 1 mM TCEP, 50 nM 6FAM-oligo (salt series with KCl 50-150 mM); SEC same buffer; NMR: 50 mM Tris pH 7.5, 150 mM NaCl, 5 mM MgCl2, 10% D2O; temperature not stated; settings: protein: recombinant; chain copies: 2; label: 5'-6FAM; single strand
Chain of SAMHD1 D311A (Q9Y3Z3 114-626 D311A): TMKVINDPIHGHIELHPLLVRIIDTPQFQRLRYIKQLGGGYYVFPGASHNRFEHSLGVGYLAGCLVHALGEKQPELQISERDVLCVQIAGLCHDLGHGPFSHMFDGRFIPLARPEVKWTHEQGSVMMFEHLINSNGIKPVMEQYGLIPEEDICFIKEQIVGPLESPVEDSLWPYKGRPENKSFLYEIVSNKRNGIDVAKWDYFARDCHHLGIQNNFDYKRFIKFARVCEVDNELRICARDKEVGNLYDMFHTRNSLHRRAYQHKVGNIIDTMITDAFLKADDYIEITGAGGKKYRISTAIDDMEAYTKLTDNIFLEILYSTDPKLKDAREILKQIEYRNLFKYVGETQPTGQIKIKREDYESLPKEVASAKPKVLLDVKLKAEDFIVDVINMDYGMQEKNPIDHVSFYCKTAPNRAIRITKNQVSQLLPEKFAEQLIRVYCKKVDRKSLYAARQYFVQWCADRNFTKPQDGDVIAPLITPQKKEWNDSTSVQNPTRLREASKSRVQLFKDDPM

SAMHD1 R352A = SAMHD1 R352A (UniProt Q9Y3Z3 114-626, R352A); assay: size-exclusion chromatography; 50 uM GTP + 50 uM dTTP; 2-fold higher stoichiometry than D311A; FA: 50 mM Tris pH 8, 100 mM NaCl, 5 mM MgCl2, 1 mM TCEP, 50 nM 6FAM-oligo (salt series with KCl 50-150 mM); SEC same buffer; NMR: 50 mM Tris pH 7.5, 150 mM NaCl, 5 mM MgCl2, 10% D2O; temperature not stated; settings: protein: recombinant; chain copies: 2; label: 5'-6FAM; single strand
Chain of SAMHD1 R352A (Q9Y3Z3 114-626 R352A): as the sequence (Q9Y3Z3 114-626 D311A) above, with A198D, R239A counted along it

SAMHD1 K523A = SAMHD1 K523A (UniProt Q9Y3Z3 114-626, K523A); assay: as above; settings: protein: recombinant; chain copies: 2; label: 5'-6FAM; single strand
Chain of SAMHD1 K523A (Q9Y3Z3 114-626 K523A): as the sequence (Q9Y3Z3 114-626 D311A) above, with A198D, K410A counted along it

SAMHD1 HD domain WT [4] = biological target: T1, SAMHD1 HD domain WT; assay: fluorescence anisotropy; no significant difference from d(TG*TTCA); FA: 50 mM Tris pH 8, 100 mM NaCl, 5 mM MgCl2, 1 mM TCEP, 50 nM 6FAM-oligo (salt series with KCl 50-150 mM); SEC same buffer; NMR: 50 mM Tris pH 7.5, 150 mM NaCl, 5 mM MgCl2, 10% D2O; temperature not stated; settings: protein: recombinant; chain copies: 2; label: 5'-6FAM; single strand
SAMHD1 HD domain WT [5] = biological target: T1, SAMHD1 HD domain WT; assay: fluorescence anisotropy; FA: 50 mM Tris pH 8, 100 mM NaCl, 5 mM MgCl2, 1 mM TCEP, 50 nM 6FAM-oligo (salt series with KCl 50-150 mM); SEC same buffer; NMR: 50 mM Tris pH 7.5, 150 mM NaCl, 5 mM MgCl2, 10% D2O; temperature not stated; settings: protein: recombinant; chain copies: 2; label: 5'-6FAM; single strand; remark: listed apart in the source

T1 sequence (Q9Y3Z3 114-626): as the sequence (Q9Y3Z3 114-626 D311A) above, with A198D counted along it

Question: For TGTTCA (ssDNA, phosphorothioate after G2, pure Rp) [6FAM-d(TG*TTCA) Rp], which binding signal (SAMHD1 HD domain WT [1]) is on record?
Answer: ~10 fold higher affinity than Sp

Question: Does CGCCU (ssRNA, phosphorothioate at linkages 1-4, mixed Rp/Sp) [6FAM-r(C*G*C*C*U)] bind (SAMHD1 HD domain WT [2])?
Answer: binds

Question: Does CGCCU (ssRNA) [r(CGCCU)] bind (SAMHD1 HD domain WT [3])?
Answer: binds

Question: What does the source list for CGCCT (ssDNA, phosphorothioate at linkages 1-4, mixed Rp/Sp) [6FAM-d(C*G*C*C*T)]?
Answer: binding result (SAMHD1 D311A): binds; binding result (SAMHD1 R352A): binds; binding result (SAMHD1 K523A): binds; binding result (SAMHD1 HD domain WT [2]): binds

Question: Does UGUUCA (ssRNA, phosphorothioate after G2, mixed Rp/Sp) [6FAM-r(UG*UUCA)] bind (SAMHD1 HD domain WT [4])?
Answer: binds

Question: Does CGCCT (ssDNA, phosphorothioate at linkages 1-4, mixed Rp/Sp) [d(C*G*C*C*T)] bind (SAMHD1 HD domain WT [3])?
Answer: binds

Question: Does CACCT (ssDNA, phosphorothioate?) [6FAM oligo with G replaced by A] bind (SAMHD1 HD domain WT [5])?
Answer: no binding

Question: TGTTCA (ssDNA, phosphorothioate after G2, pure Sp) [6FAM-d(TG*TTCA) Sp] was tested. Which binding signal (SAMHD1 HD domain WT [1]) did it give?
Answer: ~0.1 affinity relative to Rp

Question: Does CTCCT (ssDNA, phosphorothioate?) [6FAM oligo with G replaced by T] bind (SAMHD1 HD domain WT [5])?
Answer: no binding
